Data taken from paper PMC5960609 (Biochemical pharmacology, 2018).
Residue numbers refer to the chain shown, from its start. Numbers in names are those of the source. Blank lines part the entries; values can stand above or below the molecule they belong to.

B1: GST-p23 D108A (natural protein, human, UniProt Q15185 1-160, looked up)
chain: MQPASAKWYDRRDYVFIEFCVEDSKDVNVNFEKSKLTFSCLGGSDNFKHLNEIDLFHCIDPNDSKHKRTDRSILCCLRKGESGQSWPRLTKERAKLNWLSVDFNNWKAWEDDSDEDMSNFDRFSEMMNNMGGDEDVDLPEVDGADDDSQDSDDEKMPDLE
B2: GST-p23 D112A (natural protein, human, UniProt Q15185 1-160, looked up)
chain: B1 chain with A108D, D112A
B3: GST-p23 CΔ50 (p23 aa1-110, lacking the terminal 50 amino acids) (domain or fragment, human, UniProt Q15185 1-110, looked up)
chain: MQPASAKWYDRRDYVFIEFCVEDSKDVNVNFEKSKLTFSCLGGSDNFKHLNEIDLFHCIDPNDSKHKRTDRSILCCLRKGESGQSWPRLTKERAKLNWLSVDFNNWKDWE
B4: TH553, thioredoxin fusion of human AHR aa1-295 (CΔ553) (domain or fragment, UniProt P35869 1-295, looked up)
chain: MNSSSANITYASRKRRKPVQKTVKPIPAEGIKSNPSKRHRDRLNTELDRLASLLPFPQDVINKLDKLSVLRLSVSYLRAKSFFDVALKSSPTERNGGQDNCRAANFREGLNLQEGEFLLQALNGFVLVVTTDALVFYASSTIQDYLGFQQSDVIHQSVYELIHTEDRAEFQRQLHWALNPSQCTESGQGIEEATGLPQTVVCYNPDQIPPENSPLMERCFICRLRCLLDNSSGFLAMNFQGKLKYLHGQKKKGKDGSILPPQLALFAIATPLQPPSILEIRTKNFIFRTKHKLDF

Columns and labels:
[1] = target: GST-p23 W106A (human) (UniProt Q15185); assay: pull-down
[2] = target: GST-p23 D112A (human) (UniProt Q15185); assay: pull-down
[3] = target: GST-p23 D108A (human) (UniProt Q15185); assay: pull-down
[4] = target: B4; assay: pull-down
[5] = target: Full-length human ARNT expressed in Pichia (human, UniProt P27540 1-789); assay: native gel or EMSA
Full-length human ARNT expressed in Pichia, sequence (P27540 whole entry): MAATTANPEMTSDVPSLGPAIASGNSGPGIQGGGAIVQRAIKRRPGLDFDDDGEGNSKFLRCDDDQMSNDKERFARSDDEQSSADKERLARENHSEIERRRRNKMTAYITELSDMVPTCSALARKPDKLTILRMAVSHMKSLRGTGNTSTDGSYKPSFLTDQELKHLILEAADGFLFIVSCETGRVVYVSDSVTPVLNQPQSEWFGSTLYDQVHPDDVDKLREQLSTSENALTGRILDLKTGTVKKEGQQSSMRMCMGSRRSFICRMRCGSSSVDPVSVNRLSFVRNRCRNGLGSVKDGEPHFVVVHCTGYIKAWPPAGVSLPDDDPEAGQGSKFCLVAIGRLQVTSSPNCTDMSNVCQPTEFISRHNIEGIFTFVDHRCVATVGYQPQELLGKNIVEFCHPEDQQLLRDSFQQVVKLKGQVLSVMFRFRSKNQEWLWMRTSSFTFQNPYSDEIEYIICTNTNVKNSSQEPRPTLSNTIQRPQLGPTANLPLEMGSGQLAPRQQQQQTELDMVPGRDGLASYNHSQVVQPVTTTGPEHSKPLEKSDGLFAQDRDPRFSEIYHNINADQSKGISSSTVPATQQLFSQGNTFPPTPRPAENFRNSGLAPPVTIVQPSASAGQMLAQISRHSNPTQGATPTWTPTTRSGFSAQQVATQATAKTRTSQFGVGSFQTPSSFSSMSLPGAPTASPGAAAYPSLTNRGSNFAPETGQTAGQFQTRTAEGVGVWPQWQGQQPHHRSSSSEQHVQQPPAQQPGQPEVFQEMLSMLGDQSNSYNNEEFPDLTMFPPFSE

- Hsp90 co-precipitated, percent of wild-type p23 [1]: 19%
- Hsp90 co-precipitated, percent of wild-type p23 [2]: 41%
- Hsp90 co-precipitated, percent of wild-type p23 [3]: 12%
Molecule: Histidine fusion of full-length human Hsp90 (from UniProt P07900 1-732) (natural protein)

Molecule: B1
- binding result [4]: binds

Molecule: B2
- binding result [4]: binds

Molecule: B3
- binding result [4]: binds

Molecule: B4
- binding result [5]: binds
